Test results reported in patent publication US20150368311A1 (Sanofi, published 2015).
Non-standard residues stand in square brackets, D forms with d. No end group written: not given here. Ala(4-thiazolyl) = N[C@@H](Cc1cscn1)C(=O)O; Nle = CCCC[C@H](N)C(=O)O

B1: SEQ ID NO: 4 (peptide)
peptide: [Ala(4-thiazolyl)]SQGTFTSDLSKQLESRRAQEFIEWLLAGGPESGAPPPS-OH
modifications: N-terminus assumed
SMILES: CC[C@H](C)[C@H](NC(=O)[C@H](Cc1ccccc1)NC(=O)[C@H](CCC(=O)O)NC(=O)[C@H](CCC(N)=O)NC(=O)[C@H](C)NC(=O)[C@H](CCCNC(=N)N)NC(=O)[C@H](CCCNC(=N)N)NC(=O)[C@H](CO)NC(=O)[C@H](CCC(=O)O)NC(=O)[C@H](CC(C)C)NC(=O)[C@H](CCC(N)=O)NC(=O)[C@H](CCCCN)NC(=O)[C@H](CO)NC(=O)[C@H](CC(C)C)NC(=O)[C@H](CC(=O)O)NC(=O)[C@H](CO)NC(=O)[C@@H](NC(=O)[C@H](Cc1ccccc1)NC(=O)[C@@H](NC(=O)CNC(=O)[C@H](CCC(N)=O)NC(=O)[C@H](CO)NC(=O)[C@@H](N)Cc1cscn1)[C@@H](C)O)[C@@H](C)O)C(=O)N[C@@H](CCC(=O)O)C(=O)N[C@@H](Cc1c[nH]c2ccccc12)C(=O)N[C@@H](CC(C)C)C(=O)N[C@@H](CC(C)C)C(=O)N[C@@H](C)C(=O)NCC(=O)NCC(=O)N1CCC[C@H]1C(=O)N[C@@H](CCC(=O)O)C(=O)N[C@@H](CO)C(=O)NCC(=O)N[C@@H](C)C(=O)N1CCC[C@H]1C(=O)N1CCC[C@H]1C(=O)N1CCC[C@H]1C(=O)N[C@@H](CO)C(=O)O
B2: SEQ ID NO: 16 (peptide)
peptide: [Ala(4-thiazolyl)]SQGTFTSDLSKQ[Nle]ESRRAQEFIEWLLATGPESGAPPPS-OH
modifications: N-terminus assumed
SMILES: CCCC[C@H](NC(=O)[C@H](CCC(N)=O)NC(=O)[C@H](CCCCN)NC(=O)[C@H](CO)NC(=O)[C@H](CC(C)C)NC(=O)[C@H](CC(=O)O)NC(=O)[C@H](CO)NC(=O)[C@@H](NC(=O)[C@H](Cc1ccccc1)NC(=O)[C@@H](NC(=O)CNC(=O)[C@H](CCC(N)=O)NC(=O)[C@H](CO)NC(=O)[C@@H](N)Cc1cscn1)[C@@H](C)O)[C@@H](C)O)C(=O)N[C@@H](CCC(=O)O)C(=O)N[C@@H](CO)C(=O)N[C@@H](CCCNC(=N)N)C(=O)N[C@@H](CCCNC(=N)N)C(=O)N[C@@H](C)C(=O)N[C@@H](CCC(N)=O)C(=O)N[C@@H](CCC(=O)O)C(=O)N[C@@H](Cc1ccccc1)C(=O)N[C@H](C(=O)N[C@@H](CCC(=O)O)C(=O)N[C@@H](Cc1c[nH]c2ccccc12)C(=O)N[C@@H](CC(C)C)C(=O)N[C@@H](CC(C)C)C(=O)N[C@@H](C)C(=O)N[C@H](C(=O)NCC(=O)N1CCC[C@H]1C(=O)N[C@@H](CCC(=O)O)C(=O)N[C@@H](CO)C(=O)NCC(=O)N[C@@H](C)C(=O)N1CCC[C@H]1C(=O)N1CCC[C@H]1C(=O)N1CCC[C@H]1C(=O)N[C@@H](CO)C(=O)O)[C@@H](C)O)[C@@H](C)CC
B3: SEQ ID NO: 15 (peptide)
peptide: [Ala(4-thiazolyl)]SQGTFTSDLSKQLESRRAQDFIEWLLATGPESGAPPPS-OH
modifications: N-terminus assumed
SMILES: CC[C@H](C)[C@H](NC(=O)[C@H](Cc1ccccc1)NC(=O)[C@H](CC(=O)O)NC(=O)[C@H](CCC(N)=O)NC(=O)[C@H](C)NC(=O)[C@H](CCCNC(=N)N)NC(=O)[C@H](CCCNC(=N)N)NC(=O)[C@H](CO)NC(=O)[C@H](CCC(=O)O)NC(=O)[C@H](CC(C)C)NC(=O)[C@H](CCC(N)=O)NC(=O)[C@H](CCCCN)NC(=O)[C@H](CO)NC(=O)[C@H](CC(C)C)NC(=O)[C@H](CC(=O)O)NC(=O)[C@H](CO)NC(=O)[C@@H](NC(=O)[C@H](Cc1ccccc1)NC(=O)[C@@H](NC(=O)CNC(=O)[C@H](CCC(N)=O)NC(=O)[C@H](CO)NC(=O)[C@@H](N)Cc1cscn1)[C@@H](C)O)[C@@H](C)O)C(=O)N[C@@H](CCC(=O)O)C(=O)N[C@@H](Cc1c[nH]c2ccccc12)C(=O)N[C@@H](CC(C)C)C(=O)N[C@@H](CC(C)C)C(=O)N[C@@H](C)C(=O)N[C@H](C(=O)NCC(=O)N1CCC[C@H]1C(=O)N[C@@H](CCC(=O)O)C(=O)N[C@@H](CO)C(=O)NCC(=O)N[C@@H](C)C(=O)N1CCC[C@H]1C(=O)N1CCC[C@H]1C(=O)N1CCC[C@H]1C(=O)N[C@@H](CO)C(=O)O)[C@@H](C)O
B4: SEQ ID NO: 3 (peptide)
peptide: [Ala(4-thiazolyl)]SQGTFTSDLSKQ[Nle]ESRRAQDFIEWLLATGPESGAPPPS-OH
modifications: N-terminus assumed
SMILES: CCCC[C@H](NC(=O)[C@H](CCC(N)=O)NC(=O)[C@H](CCCCN)NC(=O)[C@H](CO)NC(=O)[C@H](CC(C)C)NC(=O)[C@H](CC(=O)O)NC(=O)[C@H](CO)NC(=O)[C@@H](NC(=O)[C@H](Cc1ccccc1)NC(=O)[C@@H](NC(=O)CNC(=O)[C@H](CCC(N)=O)NC(=O)[C@H](CO)NC(=O)[C@@H](N)Cc1cscn1)[C@@H](C)O)[C@@H](C)O)C(=O)N[C@@H](CCC(=O)O)C(=O)N[C@@H](CO)C(=O)N[C@@H](CCCNC(=N)N)C(=O)N[C@@H](CCCNC(=N)N)C(=O)N[C@@H](C)C(=O)N[C@@H](CCC(N)=O)C(=O)N[C@@H](CC(=O)O)C(=O)N[C@@H](Cc1ccccc1)C(=O)N[C@H](C(=O)N[C@@H](CCC(=O)O)C(=O)N[C@@H](Cc1c[nH]c2ccccc12)C(=O)N[C@@H](CC(C)C)C(=O)N[C@@H](CC(C)C)C(=O)N[C@@H](C)C(=O)N[C@H](C(=O)NCC(=O)N1CCC[C@H]1C(=O)N[C@@H](CCC(=O)O)C(=O)N[C@@H](CO)C(=O)NCC(=O)N[C@@H](C)C(=O)N1CCC[C@H]1C(=O)N1CCC[C@H]1C(=O)N1CCC[C@H]1C(=O)N[C@@H](CO)C(=O)O)[C@@H](C)O)[C@@H](C)CC

Assays:
Assay in all cases: cell-based or functional assay
human GLP-1 receptor [1] = biological target: T1, human GLP-1 receptor (human, UniProt P43220 24-463)
human glucagon receptor [2] = biological target: T2, human glucagon receptor (human, UniProt P47871 26-477)
human GLP-1 receptor [3] = biological target: T1, human GLP-1 receptor; remark: listed apart in the source
human glucagon receptor [4] = biological target: T2, human glucagon receptor; remark: listed apart in the source

T2 sequence (P47871 26-477): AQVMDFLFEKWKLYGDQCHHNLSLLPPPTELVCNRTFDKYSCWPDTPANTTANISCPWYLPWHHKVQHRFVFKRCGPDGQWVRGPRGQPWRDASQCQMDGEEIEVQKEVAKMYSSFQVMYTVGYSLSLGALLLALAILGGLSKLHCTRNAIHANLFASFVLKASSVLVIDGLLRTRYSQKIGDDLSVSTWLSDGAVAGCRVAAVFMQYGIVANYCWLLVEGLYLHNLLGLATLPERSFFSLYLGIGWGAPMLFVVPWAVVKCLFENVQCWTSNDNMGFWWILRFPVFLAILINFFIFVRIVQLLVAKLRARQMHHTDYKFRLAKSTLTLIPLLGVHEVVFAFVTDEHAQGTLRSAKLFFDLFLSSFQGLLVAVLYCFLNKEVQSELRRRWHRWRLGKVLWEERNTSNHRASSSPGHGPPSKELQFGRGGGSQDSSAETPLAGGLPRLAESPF

Row | Binder | EC50 hGLP-1R, cAMP formation (human GLP-1 receptor [1]) [nM] | EC50 hGlucagon-R, cAMP formation (human glucagon receptor [2]) [nM] | EC50 hGLP-1 R [pM], cAMP formation (human GLP-1 receptor [3]) [pM] | EC50 hGLUC R [pM], cAMP formation (human glucagon receptor [4]) [pM]
1 | B1 | 3.3 | 0.0007 | 3300 | 0.7
2 | B2 | 19.7 | 0.0009 | 19700 | 0.9
3 | B3 | 34.5 | 0.0022 | 34500 | 2.2
4 | B4 | 44.3 | 0.0018 | 44300 | 1.8
